The supplement of paper PMC10065799, “High-throughput profiling of sequence recognition by tyrosine kinases and SH2 domains using bacterial peptide display” (eLife, 2023)
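Further: 11-residue human phosphosite peptides and single-mutation variants displayed on the E. coli surface, counted by deep sequencing, each peptide's frequency after selection divided by its frequency in the unselected input library; frequency after pTyr selection over input frequency; kinase dosed for 20-30% of maximal phosphorylation in three min.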

These sequences were tested on AncSZ (assay: phosphorylation enrichment, bacterial display (enrichment ratio); higher = better substrate or ligand; peptides without Tyr show the background).
KGNMFYENSFA [EGFR_Y113_R108K_YF] showed a phosphorylation enrichment of 0.76. RAIGHYSATSK [FAM120A_Y328_Y327H] was tested, and the phosphorylation enrichment was 0.964. Work on HGTKVYIDPFT [EPHB4_Y590] yielded a phosphorylation enrichment of 0.602. DGTVHYVDEKG [IFT140_Y216] was tested, and the phosphorylation enrichment was 1.02. SKEPFYVHCIK [MYO1D_Y586_R588H_YF] gave a phosphorylation enrichment of 1.08. Work on MKGDFYRSLAE [YWHAG_Y131_Y133S_YF] yielded a phosphorylation enrichment of 0.697. Sequence RHTRSYDYMEG [FGF7_Y56] has a phosphorylation enrichment of 0.609. For ASKEPYYVHCI [MYO1D_Y585_R588H], the phosphorylation enrichment was 0.953. In the case of HNMPIYEGFAL [ACTA1_Y168_V165M_YF], the phosphorylation enrichment is reported as 1.44. LQEQNYLAVDS [FAM114A1_Y115] was tested, and the phosphorylation enrichment was 2.1. For LTSKPYAFTAW [NDUFS1_Y236_R241W], the phosphorylation enrichment was 0.575. CDYKKYGKGLR [ZNF445_Y433_Y428C] showed a phosphorylation enrichment of 0.565. Sequence VRALTYCDLHK [KCNH2_Y827] has a phosphorylation enrichment of 0.74. In the case of HFGNNYRDVLQ [MACC1_Y803_YF], the phosphorylation enrichment is reported as 0.851. TPSGNYVACGG [GNB1_Y111_A106T] gave a phosphorylation enrichment of 0.614. GHLYAYDWIRI [BEST1_Y227_S231R] showed a phosphorylation enrichment of 1.44. In the case of RFVTRHIFNRE [HLA-DQB1_Y62_Y62H_YF], the phosphorylation enrichment is reported as 0.843. Sequence RHLQEYQDPLN [GFAP_Y349_L352P] has a phosphorylation enrichment of 0.823. VFGVSYDEFRF [CFTR_Y512_I507V_YF] showed a phosphorylation enrichment of 1.09. For KNNSIYVVANI [VNN1_Y134], the phosphorylation enrichment was 0.982. RRGLLYDSDEE [MCM2_Y137] showed a phosphorylation enrichment of 1.25. With PRPAGYPSTVS [CACNA1C_Y1832] the phosphorylation enrichment was 0.458. With GGMTEYKLVVV [KRAS_Y4] the phosphorylation enrichment was 0.852. Sequence HYEFKYVINAI [MAOA_Y268_C266F] has a phosphorylation enrichment of 1.75. SVMVPYEPPEV [TP53_Y220_V217M] was tested, and the phosphorylation enrichment was 1.04. Work on DHAGEYGAEAL [HBA1_Y25_A20D] yielded a phosphorylation enrichment of 0.86. For VKALKYKSMKI [ITGA11_Y1098_L1093V], the phosphorylation enrichment was 0.396. With DKATEYIQFMR [MAX_Y70_YF] the phosphorylation enrichment was 1. For AFPVSYSSSGA [RET_Y687], the phosphorylation enrichment was 0.511.

Each sequence was assayed against EPHB1 (UniProt P54762) in the same assay as above.
Chain of EPHB1 (P54762 whole entry, looked up): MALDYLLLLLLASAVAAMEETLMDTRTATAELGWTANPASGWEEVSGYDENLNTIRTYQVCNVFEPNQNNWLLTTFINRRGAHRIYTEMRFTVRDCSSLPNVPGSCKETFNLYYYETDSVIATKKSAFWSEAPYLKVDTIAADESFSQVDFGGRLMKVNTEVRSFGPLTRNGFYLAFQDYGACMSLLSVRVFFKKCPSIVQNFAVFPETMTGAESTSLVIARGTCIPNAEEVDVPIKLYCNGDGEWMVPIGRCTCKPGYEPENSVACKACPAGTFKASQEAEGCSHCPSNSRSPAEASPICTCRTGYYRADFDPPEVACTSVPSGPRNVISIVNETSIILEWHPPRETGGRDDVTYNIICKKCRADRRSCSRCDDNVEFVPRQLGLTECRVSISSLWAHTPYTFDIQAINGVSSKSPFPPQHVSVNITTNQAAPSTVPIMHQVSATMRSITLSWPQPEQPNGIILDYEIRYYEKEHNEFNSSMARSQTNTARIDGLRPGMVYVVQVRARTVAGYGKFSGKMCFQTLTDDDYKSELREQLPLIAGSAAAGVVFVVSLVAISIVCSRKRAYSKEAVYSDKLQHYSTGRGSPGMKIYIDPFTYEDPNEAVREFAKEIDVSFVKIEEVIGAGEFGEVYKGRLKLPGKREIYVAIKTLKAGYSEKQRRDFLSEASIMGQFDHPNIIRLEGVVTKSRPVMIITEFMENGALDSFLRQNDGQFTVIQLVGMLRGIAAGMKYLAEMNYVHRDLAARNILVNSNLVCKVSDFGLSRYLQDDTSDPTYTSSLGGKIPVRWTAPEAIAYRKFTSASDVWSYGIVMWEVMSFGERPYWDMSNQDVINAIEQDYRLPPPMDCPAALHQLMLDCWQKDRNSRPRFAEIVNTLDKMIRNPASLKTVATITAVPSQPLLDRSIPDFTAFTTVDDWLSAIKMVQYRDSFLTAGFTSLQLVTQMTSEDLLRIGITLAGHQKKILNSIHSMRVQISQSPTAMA
KGNMFYENSFA [EGFR_Y113_R108K_YF] showed a phosphorylation enrichment of 0.503. RAIGHYSATSK [FAM120A_Y328_Y327H] showed a phosphorylation enrichment of 0.684. For HGTKVYIDPFT [EPHB4_Y590], the phosphorylation enrichment was 0.788. DGTVHYVDEKG [IFT140_Y216] showed a phosphorylation enrichment of 0.666. Sequence SKEPFYVHCIK [MYO1D_Y586_R588H_YF] has a phosphorylation enrichment of 0.614. In the case of MKGDFYRSLAE [YWHAG_Y131_Y133S_YF], the phosphorylation enrichment is reported as 0.334. RHTRSYDYMEG [FGF7_Y56] showed a phosphorylation enrichment of 0.534. In the case of ASKEPYYVHCI [MYO1D_Y585_R588H], the phosphorylation enrichment is reported as 1.96. HNMPIYEGFAL [ACTA1_Y168_V165M_YF] was tested, and the phosphorylation enrichment was 24.3. For LQEQNYLAVDS [FAM114A1_Y115], the phosphorylation enrichment was 6.07. LTSKPYAFTAW [NDUFS1_Y236_R241W] showed a phosphorylation enrichment of 0.421. CDYKKYGKGLR [ZNF445_Y433_Y428C] gave a phosphorylation enrichment of 0.284. With VRALTYCDLHK [KCNH2_Y827] the phosphorylation enrichment was 0.603. For HFGNNYRDVLQ [MACC1_Y803_YF], the phosphorylation enrichment was 0.648. In the case of TPSGNYVACGG [GNB1_Y111_A106T], the phosphorylation enrichment is reported as 0.771. GHLYAYDWIRI [BEST1_Y227_S231R] showed a phosphorylation enrichment of 3.44. Work on RFVTRHIFNRE [HLA-DQB1_Y62_Y62H_YF] yielded a phosphorylation enrichment of 0.482. Work on RHLQEYQDPLN [GFAP_Y349_L352P] yielded a phosphorylation enrichment of 0.504. With VFGVSYDEFRF [CFTR_Y512_I507V_YF] the phosphorylation enrichment was 0.578. KNNSIYVVANI [VNN1_Y134] showed a phosphorylation enrichment of 0.74. With RRGLLYDSDEE [MCM2_Y137] the phosphorylation enrichment was 0.796. Sequence PRPAGYPSTVS [CACNA1C_Y1832] has a phosphorylation enrichment of 0.327. In the case of GGMTEYKLVVV [KRAS_Y4], the phosphorylation enrichment is reported as 0.514. HYEFKYVINAI [MAOA_Y268_C266F] was tested, and the phosphorylation enrichment was 1.05. For SVMVPYEPPEV [TP53_Y220_V217M], the phosphorylation enrichment was 0.515. In the case of DHAGEYGAEAL [HBA1_Y25_A20D], the phosphorylation enrichment is reported as 0.426. VKALKYKSMKI [ITGA11_Y1098_L1093V] gave a phosphorylation enrichment of 0.32. DKATEYIQFMR [MAX_Y70_YF] gave a phosphorylation enrichment of 0.528. Sequence AFPVSYSSSGA [RET_Y687] has a phosphorylation enrichment of 0.455.

Each sequence was assayed against EPHB2 (UniProt P29323) in the same assay as above.
Chain of EPHB2 (P29323 whole entry, looked up): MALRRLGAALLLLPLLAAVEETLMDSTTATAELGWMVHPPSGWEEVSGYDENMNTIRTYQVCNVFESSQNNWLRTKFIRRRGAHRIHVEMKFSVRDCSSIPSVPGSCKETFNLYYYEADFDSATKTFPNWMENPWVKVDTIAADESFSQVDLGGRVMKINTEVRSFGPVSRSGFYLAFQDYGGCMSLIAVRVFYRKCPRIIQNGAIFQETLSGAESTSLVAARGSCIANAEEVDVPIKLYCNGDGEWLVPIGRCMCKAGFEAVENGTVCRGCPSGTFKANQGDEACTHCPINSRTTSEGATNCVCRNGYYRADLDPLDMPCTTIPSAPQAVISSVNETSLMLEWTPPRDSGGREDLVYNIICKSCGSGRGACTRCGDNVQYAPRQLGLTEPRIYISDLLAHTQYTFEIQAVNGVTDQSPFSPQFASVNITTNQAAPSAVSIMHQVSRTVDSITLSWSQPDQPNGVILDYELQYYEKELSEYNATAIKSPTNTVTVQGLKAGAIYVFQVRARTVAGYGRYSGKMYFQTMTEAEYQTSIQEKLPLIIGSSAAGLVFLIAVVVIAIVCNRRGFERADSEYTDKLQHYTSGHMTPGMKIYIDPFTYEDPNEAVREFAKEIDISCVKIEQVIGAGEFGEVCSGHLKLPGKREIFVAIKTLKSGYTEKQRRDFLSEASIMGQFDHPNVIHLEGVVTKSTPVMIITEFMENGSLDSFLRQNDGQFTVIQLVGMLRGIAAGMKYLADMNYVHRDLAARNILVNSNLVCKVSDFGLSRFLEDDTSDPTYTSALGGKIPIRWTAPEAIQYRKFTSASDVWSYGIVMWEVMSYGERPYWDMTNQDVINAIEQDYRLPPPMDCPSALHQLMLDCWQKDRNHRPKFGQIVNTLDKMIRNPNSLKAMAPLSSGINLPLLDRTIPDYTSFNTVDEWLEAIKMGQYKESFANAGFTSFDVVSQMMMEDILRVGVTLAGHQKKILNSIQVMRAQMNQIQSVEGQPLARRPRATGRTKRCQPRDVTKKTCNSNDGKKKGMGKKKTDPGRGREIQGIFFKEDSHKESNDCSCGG
Work on KGNMFYENSFA [EGFR_Y113_R108K_YF] yielded a phosphorylation enrichment of 0.463. Work on RAIGHYSATSK [FAM120A_Y328_Y327H] yielded a phosphorylation enrichment of 0.819. With HGTKVYIDPFT [EPHB4_Y590] the phosphorylation enrichment was 0.66. Work on DGTVHYVDEKG [IFT140_Y216] yielded a phosphorylation enrichment of 0.682. Sequence SKEPFYVHCIK [MYO1D_Y586_R588H_YF] has a phosphorylation enrichment of 0.577. For MKGDFYRSLAE [YWHAG_Y131_Y133S_YF], the phosphorylation enrichment was 0.437. In the case of RHTRSYDYMEG [FGF7_Y56], the phosphorylation enrichment is reported as 0.92. ASKEPYYVHCI [MYO1D_Y585_R588H] gave a phosphorylation enrichment of 1.21. In the case of HNMPIYEGFAL [ACTA1_Y168_V165M_YF], the phosphorylation enrichment is reported as 32.9. LQEQNYLAVDS [FAM114A1_Y115] gave a phosphorylation enrichment of 2.83. LTSKPYAFTAW [NDUFS1_Y236_R241W] showed a phosphorylation enrichment of 0.544. Work on CDYKKYGKGLR [ZNF445_Y433_Y428C] yielded a phosphorylation enrichment of 0.362. Work on VRALTYCDLHK [KCNH2_Y827] yielded a phosphorylation enrichment of 0.704. HFGNNYRDVLQ [MACC1_Y803_YF] was tested, and the phosphorylation enrichment was 0.627. TPSGNYVACGG [GNB1_Y111_A106T] gave a phosphorylation enrichment of 0.704. GHLYAYDWIRI [BEST1_Y227_S231R] gave a phosphorylation enrichment of 2.42. RFVTRHIFNRE [HLA-DQB1_Y62_Y62H_YF] showed a phosphorylation enrichment of 0.314. RHLQEYQDPLN [GFAP_Y349_L352P] gave a phosphorylation enrichment of 0.739. VFGVSYDEFRF [CFTR_Y512_I507V_YF] showed a phosphorylation enrichment of 0.577. With KNNSIYVVANI [VNN1_Y134] the phosphorylation enrichment was 0.761. With RRGLLYDSDEE [MCM2_Y137] the phosphorylation enrichment was 0.642. PRPAGYPSTVS [CACNA1C_Y1832] was tested, and the phosphorylation enrichment was 0.413. In the case of GGMTEYKLVVV [KRAS_Y4], the phosphorylation enrichment is reported as 0.569. HYEFKYVINAI [MAOA_Y268_C266F] was tested, and the phosphorylation enrichment was 0.782. SVMVPYEPPEV [TP53_Y220_V217M] gave a phosphorylation enrichment of 0.54. DHAGEYGAEAL [HBA1_Y25_A20D] gave a phosphorylation enrichment of 0.569. Sequence VKALKYKSMKI [ITGA11_Y1098_L1093V] has a phosphorylation enrichment of 0.331. DKATEYIQFMR [MAX_Y70_YF] gave a phosphorylation enrichment of 0.549. AFPVSYSSSGA [RET_Y687] showed a phosphorylation enrichment of 0.314.

The sequences below were run against FGFR1 (UniProt P11362) in the same assay as above.
Chain of FGFR1 (P11362 whole entry, looked up): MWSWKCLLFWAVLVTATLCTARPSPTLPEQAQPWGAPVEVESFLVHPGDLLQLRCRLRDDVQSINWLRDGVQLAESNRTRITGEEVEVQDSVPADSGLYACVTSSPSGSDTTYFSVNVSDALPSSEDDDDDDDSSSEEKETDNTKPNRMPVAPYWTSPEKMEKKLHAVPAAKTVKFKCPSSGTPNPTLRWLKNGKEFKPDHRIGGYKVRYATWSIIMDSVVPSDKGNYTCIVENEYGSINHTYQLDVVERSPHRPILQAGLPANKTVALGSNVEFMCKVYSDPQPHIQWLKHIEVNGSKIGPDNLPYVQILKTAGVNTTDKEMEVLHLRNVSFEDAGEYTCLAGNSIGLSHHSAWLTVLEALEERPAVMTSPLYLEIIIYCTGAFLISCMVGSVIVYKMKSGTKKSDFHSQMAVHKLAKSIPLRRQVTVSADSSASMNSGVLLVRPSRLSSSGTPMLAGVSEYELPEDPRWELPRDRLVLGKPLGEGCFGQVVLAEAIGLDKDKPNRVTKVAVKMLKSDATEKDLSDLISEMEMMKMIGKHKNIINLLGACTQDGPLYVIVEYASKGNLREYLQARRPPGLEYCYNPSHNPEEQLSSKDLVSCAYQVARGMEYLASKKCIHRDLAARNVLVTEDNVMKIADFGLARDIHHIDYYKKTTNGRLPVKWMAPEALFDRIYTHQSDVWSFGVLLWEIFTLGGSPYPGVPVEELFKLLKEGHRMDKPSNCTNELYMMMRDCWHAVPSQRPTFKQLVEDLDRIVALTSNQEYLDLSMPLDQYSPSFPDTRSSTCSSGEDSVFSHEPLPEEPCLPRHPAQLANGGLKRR
Sequence KGNMFYENSFA [EGFR_Y113_R108K_YF] has a phosphorylation enrichment of 0.332. RAIGHYSATSK [FAM120A_Y328_Y327H] gave a phosphorylation enrichment of 0.576. In the case of HGTKVYIDPFT [EPHB4_Y590], the phosphorylation enrichment is reported as 0.711. Sequence DGTVHYVDEKG [IFT140_Y216] has a phosphorylation enrichment of 0.592. In the case of SKEPFYVHCIK [MYO1D_Y586_R588H_YF], the phosphorylation enrichment is reported as 0.484. MKGDFYRSLAE [YWHAG_Y131_Y133S_YF] was tested, and the phosphorylation enrichment was 0.422. Work on RHTRSYDYMEG [FGF7_Y56] yielded a phosphorylation enrichment of 0.7. ASKEPYYVHCI [MYO1D_Y585_R588H] showed a phosphorylation enrichment of 1.89. For HNMPIYEGFAL [ACTA1_Y168_V165M_YF], the phosphorylation enrichment was 0.704. In the case of LQEQNYLAVDS [FAM114A1_Y115], the phosphorylation enrichment is reported as 3.67. In the case of LTSKPYAFTAW [NDUFS1_Y236_R241W], the phosphorylation enrichment is reported as 0.413. CDYKKYGKGLR [ZNF445_Y433_Y428C] showed a phosphorylation enrichment of 0.404. Work on VRALTYCDLHK [KCNH2_Y827] yielded a phosphorylation enrichment of 0.452. Sequence HFGNNYRDVLQ [MACC1_Y803_YF] has a phosphorylation enrichment of 0.711. TPSGNYVACGG [GNB1_Y111_A106T] gave a phosphorylation enrichment of 0.555. With GHLYAYDWIRI [BEST1_Y227_S231R] the phosphorylation enrichment was 4.35. With RFVTRHIFNRE [HLA-DQB1_Y62_Y62H_YF] the phosphorylation enrichment was 0.584. RHLQEYQDPLN [GFAP_Y349_L352P] gave a phosphorylation enrichment of 0.723. Sequence VFGVSYDEFRF [CFTR_Y512_I507V_YF] has a phosphorylation enrichment of 0.452. Work on KNNSIYVVANI [VNN1_Y134] yielded a phosphorylation enrichment of 0.701. RRGLLYDSDEE [MCM2_Y137] showed a phosphorylation enrichment of 0.898. Work on PRPAGYPSTVS [CACNA1C_Y1832] yielded a phosphorylation enrichment of 0.333. Sequence GGMTEYKLVVV [KRAS_Y4] has a phosphorylation enrichment of 1.01. In the case of HYEFKYVINAI [MAOA_Y268_C266F], the phosphorylation enrichment is reported as 0.471. Work on SVMVPYEPPEV [TP53_Y220_V217M] yielded a phosphorylation enrichment of 0.52. DHAGEYGAEAL [HBA1_Y25_A20D] showed a phosphorylation enrichment of 0.509. With VKALKYKSMKI [ITGA11_Y1098_L1093V] the phosphorylation enrichment was 0.369. Sequence DKATEYIQFMR [MAX_Y70_YF] has a phosphorylation enrichment of 0.589. AFPVSYSSSGA [RET_Y687] showed a phosphorylation enrichment of 0.407.
